The values that follow come from doi:10.1101/708180.

For assay [1], the target named is cHSP27, isolated α-crystallin domain of HSP27 (residues 84-171), oxidized disulfide-linked dimer (human) (UniProt P04792). In words: NMR titration + other: NMR CPMG relaxation dispersion.
For assay [2] the target is unchanged. The assay is described as follows: NMR CPMG relaxation dispersion.
Assay [3] has the same target. The assay is described as follows: NMR titration.

Chain of cHSP27, isolated α-crystallin domain of HSP27 (residues 84-171), oxidized disulfide-linked dimer (human) (P04792 84-171): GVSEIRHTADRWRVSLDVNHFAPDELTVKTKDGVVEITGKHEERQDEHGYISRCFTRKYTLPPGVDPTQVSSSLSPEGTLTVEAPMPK
Chain of C-terminal peptide of HSP27 bearing the P182L mutation (ILV motif) (P04792 whole entry P182L, looked up, tested part not stated): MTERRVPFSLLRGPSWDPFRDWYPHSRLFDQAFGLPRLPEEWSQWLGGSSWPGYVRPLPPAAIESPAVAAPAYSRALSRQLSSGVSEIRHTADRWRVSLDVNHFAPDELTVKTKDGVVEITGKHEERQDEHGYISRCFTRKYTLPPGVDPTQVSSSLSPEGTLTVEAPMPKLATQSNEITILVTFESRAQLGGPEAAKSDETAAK
Chain of C-terminal peptide of HSP27 containing the WT IxI/V (IPV) motif (P04792 whole entry, looked up, tested part not stated): as the sequence (P04792 whole entry P182L, looked up, tested part not stated) above, with L182P counted along it

As to “C-terminal peptide of HSP27 bearing the P182L mutation (ILV motif) (from UniProt P04792 179-186)”, the fold difference of kon (from CSP Kd and CPMG koff) against the WT peptide in assay [1] turned out to be 10 fold. In addition, in assay [2], the Kd stood at 10200 µM, the koff amounted to 840 s⁻¹ and the kon was 82600 M⁻¹ s⁻¹. Further, in assay [3], the Kd stood at 1200 µM.
In assay [2], “C-terminal peptide of HSP27 containing the WT IxI/V (IPV) motif (from UniProt P04792 179-186)” gave a Kd of 2510 µM, a koff of 759 s⁻¹ and a kon of 302000 M⁻¹ s⁻¹. Also, the Kd in assay [3] is 125 µM.
